Experimental data: patent publication CN117836322A (PASTEUR INSTITUT, dated 2024)
Where “and” joins values, the source holds several entries; their conditions need not be identical. Equal values may be shown once.

B1: Cv2.1169 IgG1 (antibody, V domains shown)
VH: QVQLVQSGPEVKKPGTSVKVSCKASGFTFTTSAVQWVRQARGQRLEWIGWIVVGSGNTNYAQKFQERVTITRDMSTTTAYMELSSLRSEDTAVYYCAAPYCSGGTCLDGFDIWGQGTMVTVSS
VL: not shown
B2: Cv2.3194 IgG1 (antibody, V domains shown)
VH: EVQLVESGGGLIQPGGSLRLSCAASGITVTSNYMSWVRQAPGKGLEWVSVIYPGGSTFYADSVKGRFTISRDNSKNTLYLQMNSLRAEDTAVYYCARDLVVYGMDVWGQGTTVTVSS
VL: EIVLTQSPGTLSLSPGERATLSCRASQSVSSSYLAWYQQKPGQAPRLLIYGASSRATGIPGRFSGSGSGTDFTLTISRLEPEDFAIYYCQQGVTFGGGTKVEIKR

Tests used:
[1] = target: SARS-CoV-2 Delta (δ, B.1.617.2) spike on virus (SARS-CoV-2); experiment: cell-based or functional assay
[2] = target: SARS-CoV-2 Omicron BA.1 spike on virus (SARS-CoV-2); experiment: cell-based or functional assay

Binder	IC50 (S-融合测定) [1]	IC50 (S-融合测定) [2]	IC50 (中和) [2]
B1	0.00446 µg/mL	0.253 µg/mL and 0.212 µg/mL	~0.25 µg/mL
B2		0.0242 µg/mL	
